This is an account of results in the supplement of paper PMC9112550, “Optimization of the antimicrobial peptide Bac7 by deep mutational scanning” (BMC Biology, 2022).

The data set concerns Escherichia coli TOP10. Briefly: shrunken log2 fold change of peptide-encoding DNA abundance (4.5 h post-induction vs induction); higher = less antimicrobial activity (less host growth inhibition). The note with it: time post-induction: 4.5 h; library: site-saturation at positions 5, 18, 19, 20.
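Note: peptides expressed intracellularly from a pBAD plasmid library in pooled LB shake-flask culture, induced with 0.3% L-arabinose, DNA abundance read by NGS, three biological replicates, DESeq2 with apeglm shrinkage.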

As for RRIRYRPPRLPRPRPRPTFKPRP, the “shrunken log2 fold change” value was -0.445.

Turning to RRIRRRPPRLPRPRPRPAHEPRP, the “shrunken log2 fold change” value amounted to 0.598.

In the case of RRIRPRPPRLPRPRPRPNRHPRP, the “shrunken log2 fold change” value was -0.0624.

In the case of RRIRERPPRLPRPRPRPGVWPRP, the “shrunken log2 fold change” value came out at 0.44.

Turning to RRIRLRPPRLPRPRPRPCTEPRP, the “shrunken log2 fold change” value is -0.0105.

Turning to RRIRWRPPRLPRPRPRPFYYPRP, the “shrunken log2 fold change” value was -0.138.

On to RRIRLRPPRLPRPRPRPMQTPRP, for which the “shrunken log2 fold change” value worked out at 0.0393.

As to RRIRHRPPRLPRPRPRPICYPRP, the “shrunken log2 fold change” value was -0.178.

As for RRIRHRPPRLPRPRPRPHQYPRP, the “shrunken log2 fold change” value is -0.52.

As for RRIRLRPPRLPRPRPRPGVGPRP, the “shrunken log2 fold change” value turned out to be 0.537.

With RRIRMRPPRLPRPRPRPAACPRP, the “shrunken log2 fold change” value came out at 0.763.

As for RRIRFRPPRLPRPRPRPNTEPRP, the “shrunken log2 fold change” value was -0.479.

Regarding RRIRNRPPRLPRPRPRPFCVPRP, the “shrunken log2 fold change” value is -0.0352.

As for RRIRWRPPRLPRPRPRPYKDPRP, the “shrunken log2 fold change” value is -0.33.

RRIRLRPPRLPRPRPRPKCVPRP: the “shrunken log2 fold change” value turned out to be 0.0912.

As to RRIRIRPPRLPRPRPRPKVLPRP, the “shrunken log2 fold change” value was -0.0165.

Take RRIRRRPPRLPRPRPRPVGHPRP: the “shrunken log2 fold change” value turned out to be 0.0496.

As for RRIRMRPPRLPRPRPRPHRIPRP, the “shrunken log2 fold change” value was 0.0956.

With RRIRFRPPRLPRPRPRPDVGPRP, the “shrunken log2 fold change” value was -0.239.

As for RRIRPRPPRLPRPRPRPCLSPRP, the “shrunken log2 fold change” value is -0.143.

Consider RRIRRRPPRLPRPRPRPRLQPRP, for which the “shrunken log2 fold change” value was determined as 0.349.

In the case of RRIRIRPPRLPRPRPRPTDQPRP, the “shrunken log2 fold change” value is -0.51.

On to RRIRIRPPRLPRPRPRPKINPRP, for which the “shrunken log2 fold change” value is -0.881.

Regarding RRIRSRPPRLPRPRPRPMKLPRP, the “shrunken log2 fold change” value was -0.0255.

Take RRIRWRPPRLPRPRPRPPCCPRP: the “shrunken log2 fold change” value amounted to 0.198.

In the case of RRIRIRPPRLPRPRPRPHADPRP, the “shrunken log2 fold change” value is -0.178.

As for RRIRERPPRLPRPRPRPLESPRP, the “shrunken log2 fold change” value is -0.0735.

As for RRIRFRPPRLPRPRPRPTNMPRP, the “shrunken log2 fold change” value is -0.712.

On to RRIRRRPPRLPRPRPRPRFWPRP, for which the “shrunken log2 fold change” value stood at 0.652.

With RRIRRRPPRLPRPRPRPCPYPRP, the “shrunken log2 fold change” value was 0.0825.

With RRIRKRPPRLPRPRPRPFWHPRP, the “shrunken log2 fold change” value amounted to 0.00192.

Consider RRIRRRPPRLPRPRPRPLKTPRP, for which the “shrunken log2 fold change” value was 0.157.

Consider RRIRVRPPRLPRPRPRPWNMPRP, for which the “shrunken log2 fold change” value was -0.192.

With RRIRARPPRLPRPRPRPEVYPRP, the “shrunken log2 fold change” value is -0.00104.

In the case of RRIRDRPPRLPRPRPRPQEYPRP, the “shrunken log2 fold change” value is -0.0984.

For the sequence RRIRIRPPRLPRPRPRPQVWPRP, the “shrunken log2 fold change” value was -0.0966.

For the sequence RRIRVRPPRLPRPRPRPDSWPRP, the “shrunken log2 fold change” value is -0.0688.

In the case of RRIRQRPPRLPRPRPRPCDEPRP, the “shrunken log2 fold change” value worked out at 0.0697.

Regarding RRIRNRPPRLPRPRPRPCKHPRP, the “shrunken log2 fold change” value was -0.344.

As to RRIRSRPPRLPRPRPRPQLGPRP, the “shrunken log2 fold change” value worked out at 0.115.

Take RRIRDRPPRLPRPRPRPKTIPRP: the “shrunken log2 fold change” value was -0.00641.

For RRIRTRPPRLPRPRPRPHCSPRP, the “shrunken log2 fold change” value is -0.0966.

For RRIRYRPPRLPRPRPRPVGMPRP, the “shrunken log2 fold change” value is -0.083.

For RRIRKRPPRLPRPRPRPAIMPRP, the “shrunken log2 fold change” value was found to be 0.418.

In the case of RRIRMRPPRLPRPRPRPRIPPRP, the “shrunken log2 fold change” value was determined as 0.199.

As for RRIRWRPPRLPRPRPRPILVPRP, the “shrunken log2 fold change” value is 0.0752.

In the case of RRIRCRPPRLPRPRPRPFACPRP, the “shrunken log2 fold change” value was -0.22.

With RRIRVRPPRLPRPRPRPAKGPRP, the “shrunken log2 fold change” value is -0.283.

Consider RRIRIRPPRLPRPRPRPKSFPRP, for which the “shrunken log2 fold change” value is 0.0398.

As for RRIRARPPRLPRPRPRPNIGPRP, the “shrunken log2 fold change” value was -0.0734.

In the case of RRIRWRPPRLPRPRPRPGQTPRP, the “shrunken log2 fold change” value is -0.0122.

As for RRIRVRPPRLPRPRPRPDQQPRP, the “shrunken log2 fold change” value is 0.021.

Consider RRIRYRPPRLPRPRPRPQDDPRP, for which the “shrunken log2 fold change” value was -0.0017.

RRIRWRPPRLPRPRPRPYLRPRP: the “shrunken log2 fold change” value was -0.37.

Turning to RRIRVRPPRLPRPRPRPSKYPRP, the “shrunken log2 fold change” value was -0.783.

With RRIRERPPRLPRPRPRPTKNPRP, the “shrunken log2 fold change” value is -0.187.

For the sequence RRIRTRPPRLPRPRPRPVRTPRP, the “shrunken log2 fold change” value came out at 0.149.

For RRIRWRPPRLPRPRPRPKWVPRP, the “shrunken log2 fold change” value is -0.00843.

On to RRIRSRPPRLPRPRPRPGNQPRP, for which the “shrunken log2 fold change” value is -0.0918.

For the sequence RRIRTRPPRLPRPRPRPSVEPRP, the “shrunken log2 fold change” value was 0.0926.

Regarding RRIRQRPPRLPRPRPRPYQSPRP, the “shrunken log2 fold change” value was -0.176.

Regarding RRIRLRPPRLPRPRPRPCVHPRP, the “shrunken log2 fold change” value is -0.377.

Turning to RRIRQRPPRLPRPRPRPRHNPRP, the “shrunken log2 fold change” value was -0.0654.

Take RRIRPRPPRLPRPRPRPGLYPRP: the “shrunken log2 fold change” value was -0.132.

For RRIRYRPPRLPRPRPRPAPAPRP, the “shrunken log2 fold change” value was determined as 0.0272.

As to RRIRERPPRLPRPRPRPWCSPRP, the “shrunken log2 fold change” value is -0.177.

For the sequence RRIRYRPPRLPRPRPRPTMAPRP, the “shrunken log2 fold change” value is 0.12.

Consider RRIRDRPPRLPRPRPRPRCGPRP, for which the “shrunken log2 fold change” value came to 0.565.

For RRIRLRPPRLPRPRPRPRELPRP, the “shrunken log2 fold change” value came to 0.765.

For the sequence RRIRNRPPRLPRPRPRPTVSPRP, the “shrunken log2 fold change” value is -0.268.

Regarding RRIRQRPPRLPRPRPRPTEHPRP, the “shrunken log2 fold change” value was -0.00172.

As for RRIRIRPPRLPRPRPRPAQGPRP, the “shrunken log2 fold change” value came to 0.168.

For the sequence RRIRIRPPRLPRPRPRPAFWPRP, the “shrunken log2 fold change” value is 0.15.

In the case of RRIRTRPPRLPRPRPRPYFVPRP, the “shrunken log2 fold change” value is -0.258.

With RRIRWRPPRLPRPRPRPADYPRP, the “shrunken log2 fold change” value was -0.123.

As to RRIRFRPPRLPRPRPRPPYLPRP, the “shrunken log2 fold change” value is -0.465.

For RRIRPRPPRLPRPRPRPFEPPRP, the “shrunken log2 fold change” value came to 0.232.

On to RRIRLRPPRLPRPRPRPTNWPRP, for which the “shrunken log2 fold change” value was determined as 0.0175.

RRIRIRPPRLPRPRPRPVAGPRP: the “shrunken log2 fold change” value is -0.0858.

With RRIRFRPPRLPRPRPRPSMMPRP, the “shrunken log2 fold change” value is -0.941.

As to RRIRIRPPRLPRPRPRPDQGPRP, the “shrunken log2 fold change” value was 0.0651.

For the sequence RRIRARPPRLPRPRPRPFEAPRP, the “shrunken log2 fold change” value was 0.564.

Regarding RRIRQRPPRLPRPRPRPHTVPRP, the “shrunken log2 fold change” value is -0.484.

Consider RRIRHRPPRLPRPRPRPMAPPRP, for which the “shrunken log2 fold change” value was found to be 0.0599.

With RRIRNRPPRLPRPRPRPHDPPRP, the “shrunken log2 fold change” value was -0.202.

As for RRIRLRPPRLPRPRPRPCCGPRP, the “shrunken log2 fold change” value was -0.00366.

Consider RRIRFRPPRLPRPRPRPRMFPRP, for which the “shrunken log2 fold change” value was 0.169.

For RRIRVRPPRLPRPRPRPMMTPRP, the “shrunken log2 fold change” value worked out at 0.0496.

On to RRIRWRPPRLPRPRPRPGVGPRP, for which the “shrunken log2 fold change” value was 1.27.

In the case of RRIRQRPPRLPRPRPRPAFFPRP, the “shrunken log2 fold change” value came out at 0.11.

Regarding RRIRPRPPRLPRPRPRPLMMPRP, the “shrunken log2 fold change” value is -0.204.
